Molecular target: Biotin carboxylase AccC (E. coli) (UniProt P24182)
Assay: SEC

stoichiometry N: 1
Substance: Biotin-carboxy carrier protein AccB (from UniProt P0ABD8 1-156) (natural protein)
